# Measurements taken from IntAct's records for PubMed 29789297.
# B1: Protein FAM83G (Homo sapiens), A6ND36 (parent)
# chain: MAFSQVQCLDDNHVNWRSSESKPEFFYSEEQRLALEALVARGRDAFYEVLKRENIRDFLSELELKRILETIEVYDPGSEDPRGTGPSQGPEDNGVGDGEEASGADGVPIEAEPLPSLEYWPQKSDRSIPQLDLGWPDTIAYRGVTRASVYMQPPIDGQAHIKEVVRKMISQAQKVIAVVMDMFTDVDIFKDLLDAGFKRKVAVYIIVDESNVKYFLHMCERACMHLGHLKNLRVRSSGGTEFFTRSATKFKGALAQKFMFVDGDRAVCGSYSFTWSAARTDRNVISVLSGQVVEMFDRQFQELYLMSHSVSLKGIPMEKEPEPEPIVLPSVVPLVPAGTVAKKLVNPKYALVKAKSVDEIAKISSEKQEAKKPLGLKGPALAEHPGELPELLPPIHPGLLHLERANMFEYLPTWVEPDPEPGSDILGYINIIDPNIWNPQPSQMNRIKIRDTSQASAQHQLWKQSQDSRPRPEPCPPPEPSAPQDGVPAENGLPQGDPEPLPPVPKPRTVPVADVLARDSSDIGWVLELPKEEAPQNGTDHRLPRMAGPGHAPLQRQLSVTQDDPESLGVGLPNGLDGVEEEDDDDYVTLSDQDSHSGSSGRGPGPRRPSVASSVSEEYFEVREHSVPLRRRHSEQVANGPTPPPRRQLSAPHITRGTFVGPQGGSPWAQSRGREEADALKRMQAQRSTDKEAQGQQFHHHRVPASGTRDKDGFPGPPRYRSAADSVQSSTRNAGPAMAGPHHWQAKGGQVPRLLPDPGSPRLAQNARPMTDGRATEEHPSPFGIPYSKLSQSKHLKARTGGSQWASSDSKRRAQAPRDRKDP
# B2: Protein FAM83F (Homo sapiens), Q8NEG4 (parent)
# chain: MAESQLNCLDEAHVNEKVTEAQAAFYYCERRRAALEALLGGGEQAYRERLKEEQLRDFLSSPERQALRAAWSPYEDAVPAANARGKSKAKAKAPAPAPAESGESLAYWPDRSDTEVPPLDLGWTDTGFYRGVSRVTLFTHPPKDEKAPHLKQVVRQMIQQAQKVIAVVMDLFTDGDIFQDIVDAACKRRVPVYIILDEAGVKYFLEMCQDLQLTDFRIRNIRVRSVTGVGFYMPMGRIKGTLSSRFLMVDGDKVATGSYRFTWSSSHVDRNLLLLLTGQNVEPFDTEFRELYAISEEVDLYRQLSLAGRVGLHYSSTVARKLINPKYALVSGCRHPPGEMMRWAARQQREAGGNPEGQEEGASGGESAWRLESFLKDLVTVEQVLPPVEPIPLGELSQKDGRMVSHMHRDLKPKSREAPSRNGMGEAARGEAAPARRFSSRLFSRRAKRPAAPNGMASSVSTETSEVEFLTGKRPNENSSADISGKTSPSSAKPSNCVIS
# B3: Protein FAM83H (Homo sapiens), Q6ZRV2 (parent)
# chain: MARRSQSSSQGDNPLAPGYLPPHYKEYYRLAVDALAEGGSEAYSRFLATEGAPDFLCPEELEHVSRHLRPPQYVTREPPEGSLLDVDMDGSSGTYWPVNSDQAVPELDLGWPLTFGFQGTEVTTLVQPPPPDSPSIKDEARRMIRSAQQVVAVVMDMFTDVDLLSEVLEAAARRVPVYILLDEMNAQHFLDMADKCRVNLQHVDFLRVRTVAGPTYYCRTGKSFKGHVKEKFLLVDCAVVMSGSYSFMWSFEKIHRSLAHVFQGELVSSFDEEFRILFAQSEPLVPSAAALARMDAYALAPYAGAGPLVGVPGVGAPTPFSFPKRAHLLFPPPREEGLGFPSFLDPDRHFLSAFRREEPPRMPGGALEPHAGLRPLSRRLEAEAGPAGELAGARGFFQARHLEMDAFKRHSFATEGAGAVENFAAARQVSRQTFLSHGDDFRFQTSHFHRDQLYQQQYQWDPQLTPARPQGLFEKLRGGRAGFADPDDFTLGAGPRFPELGPDGHQRLDYVPSSASREVRHGSDPAFAPGPRGLEPSGAPRPNLTQRFPCQAAARPGPDPAPEAEPERRGGPEGRAGLRRWRLASYLSGCHGEDGGDDGLPAPMEAEAYEDDVLAPGGRAPAGDLLPSAFRVPAAFPTKVPVPGPGSGGNGPEREGPEEPGLAKQDSFRSRLNPLVQRSSRLRSSLIFSTSQAEGAAGAAAATEKVQLLHKEQTVSETLGPGGEAVRSAASTKVAELLEKYKGPARDPGGGAGAITVASHSKAVVSQAWREEVAAPGAVGGERRSLESCLLDLRDSFAQQLHQEAERQPGAASLTAAQLLDTLGRSGSDRLPSRFLSAQSHSTSPQGLDSPLPLEGSGAHQVLHNESKGSPTSAYPERKGSPTPGFSTRRGSPTTGFIEQKGSPTSAYPERRGSPVPPVPERRSSPVPPVPERRGSLTLTISGESPKAGPAEEGPSGPMEVLRKGSLRLRQLLSPKGERRMEDEGGFPVPQENGQPESPRRLSLGQGDSTEAATEERGPRARLSSATANALYSSNLRDDTKAILEQISAHGQKHRAVPAPSPGPTHNSPELGRPPAAGVLAPDMSDKDKCSAIFRSDSLGTQGRLSRTLPASAEERDRLLRRMESMRKEKRVYSRFEVFCKKEEASSPGAGEGPAEEGTRDSKVGKFVPKILGTFKSKK
# B4: Protein FAM83C (Homo sapiens), Q9BQN1 (parent)
# chain: MFGGPGPGVLGAQGMAGPLRGRVEELKLPWWRESSPLVLRHSEAARLAADALLERGEAAYLRVISEERELPFLSALDVDYMTSHVRGGPELSEAQGQEASGPDRLSLLSEVTSGTYFPMASDIDPPDLDLGWPEVPQATGFSPTQAVVHFQRDKAKNIKDLLRFLFSQAHTVVAVVMDIFTDMELLCDLMEASSRRGVPVYLLLAQEHLRHFLEMCYKMDLNGEHLPNMRVRSTCGDTYCSKAGRRFTGQALEKFVLIDCEQVVAGSYSFTWLCSQAHTSMVLQLRGRIVEDFDREFRCLYAESQPVEGFCGGEDPLSPRALRPPPVALAFRPDVPSPTSSLPSSTSLSSIKQSPLMGRSSYLALPGGGDCSDTGVVSSSLGPARREASGQPSLHRQLSDPNHGSPPGLYRANLGKLGAYPWSQSSPALNHNSTSPLTLAVGSPLLPRSRPLLQFHRGAPALSRFPENGLPGSQEPSPLRGRWVPGTTLETVEEKEKKASPSQSRGQLDLLVPFPRAREVGDPDSGVTPNSGPLRPGEQAPEDRRLSPSQADSQLDLLSRALGTGGAPELGSLRPGDRALEDRRLSLNQSRGQSDLLMQYPKAQGSRVPLETNSSARPARRAPDERRQTLGHSQLDLITKFGPFRGEGPGPNGLPISSPARTAGAGSGDEKRLTLGHSKLDLITKYHQLHGARQGTEPGGPKGGHLNGGNSDLVRDEKRLTLGHSKLDLITKYNKSKFKQLRSRFES
# B5: Casein kinase I isoform alpha (Homo sapiens), P48729 (parent)
# chain: MASSSGSKAEFIVGGKYKLVRKIGSGSFGDIYLAINITNGEEVAVKLESQKARHPQLLYESKLYKILQGGVGIPHIRWYGQEKDYNVLVMDLLGPSLEDLFNFCSRRFTMKTVLMLADQMISRIEYVHTKNFIHRDIKPDNFLMGIGRHCNKLFLIDFGLAKKYRDNRTRQHIPYREDKNLTGTARYASINAHLGIEQSRRDDMESLGYVLMYFNRTSLPWQGLKAATKKQKYEKISEKKMSTPVEVLCKGFPAEFAMYLNYCRGLRFEEAPDYMYLRQLFRILFRTLNHQYDYTFDWTMLKQKAAQQAASSSGQGQQAQTPTGKQTDKTKSNMKGF
# B6: Casein kinase I isoform alpha (Homo sapiens), P48729 (parent)
# chain: B5 chain
# partner: B1 chain
# B7: Casein kinase I isoform alpha (Homo sapiens), P48729 (parent)
# chain: B5 chain
# partner: B3 chain
# Variants of: B1
# Settings: with kc1a_human CSNK1A1, P48729
row,effect of a mutation on the interaction,Variant
1,disrupting interaction strength,F296A
2,disrupting interaction strength,F296A;F300A
3,with no effect,F300A

# Variants of: B1
# Settings: with kc1a_human CSNK1A1, P48729
# Remark: another data set of the same source
row,effect of a mutation on the interaction,Variant
1,disrupting interaction strength,F300A
2,disrupting interaction strength,D262A

# Variants of: B2
# Settings: with kc1a_human CSNK1A1, P48729
row,effect of a mutation on the interaction,Variant
1,disrupting interaction strength,D250A
2,disrupting interaction strength,F284A

# Variants of: B3
# Settings: with kc1a_human CSNK1A1, P48729
row,effect of a mutation on the interaction,Variant
1,disrupting interaction strength,D236A
2,disrupting interaction strength,F270A

# Variants of: B3
# Settings: with kc1e_human CSNK1E
row,effect of a mutation on the interaction,Variant
1,disrupting interaction strength,D236A
2,disrupting interaction strength,F270A

# Variants of: B4
# Settings: with kc1a_human CSNK1A1, P48729
row,effect of a mutation on the interaction,Variant
1,disrupting interaction strength,D259A
2,disrupting interaction strength,F293A

# Variants of: B5
# Settings: with fa83e_human FAM83E
row,effect of a mutation on the interaction,Variant
1,with no effect,N141A

# Variants of: B5
# Settings: with fa83f_human FAM83F
row,effect of a mutation on the interaction,Variant
1,with no effect,N141A

# Variants of: B6
# Settings: with fa83g_human FAM83G
row,effect of a mutation on the interaction,Variant
1,with no effect,N141A

# Variants of: B7
# Settings: with fa83h_human FAM83H
row,effect of a mutation on the interaction,Variant
1,with no effect,N141A
